From patent publication US20050064507

Legend:
[1] = molecular target: T1, PARIS1 peptide EYLERRASRRRAV (SEQ ID NO:89) (not fully specified)
T1 chain: EYLERRASRRRAV

[2] = molecular target: T2, ASIP peptide KKRSSKKEASMKKVVRP (SEQ ID NO:97) (not fully specified)
T2 chain: KKRSSKKEASMKKVVRP

[3] = molecular target: T3, MLK3 peptide HVRRRRGTFKRSKLRARD (SEQ ID NO:76) (not fully specified)
T3 chain: HVRRRRGTFKRSKLRARD

[4] = molecular target: T4, p47phox peptide QAQRQIKRGAPPRRSSIRNA (SEQ ID NO:146) (not fully specified)
T4 chain: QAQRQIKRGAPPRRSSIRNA

[5] = molecular target: T5, MYBPC3 peptide LLKKRDSFRTPRDSKLE (SEQ ID NO:103) (not fully specified)
T5 chain: LLKKRDSFRTPRDSKLE

[6] = molecular target: T6, PLEC1 peptide KRERKTSSKSSVRKRR (SEQ ID NO:81) (not fully specified)
T6 chain: KRERKTSSKSSVRKRR

[7] = molecular target: T7, MacMARCKS peptide KKKFSFKKPFKLSGLSFKRN (SEQ ID NO:162) (not fully specified)
T7 chain: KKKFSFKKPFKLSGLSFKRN

[8] = molecular target: T8, dag kinase iota peptide NRKKKRTSFKRKA (SEQ ID NO:115) (not fully specified)
T8 chain: NRKKKRTSFKRKA

[9] = molecular target: T9, NEURL peptide ALRRPSLRREADD (SEQ ID NO:105) (not fully specified)
T9 chain: ALRRPSLRREADD

[10] = molecular target: T10, MARCKS peptide KKKRFSFKKSFKLSGFSFKK (SEQ ID NO:111) (not fully specified)
T10 chain: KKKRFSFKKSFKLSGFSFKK

[11] = molecular target: T11, pleckstrin 1 peptide KAIKAIEGGQKFARKSTRRS (SEQ ID NO:126) (not fully specified)
T11 chain: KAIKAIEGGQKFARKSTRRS

[12] = molecular target: T12, NIK peptide TEGKMARVAWKGKRRSKARK (SEQ ID NO:164) (not fully specified)
T12 chain: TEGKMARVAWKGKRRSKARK

[13] = molecular target: T13, dag kinase zeta peptide RPQNTLKASKKKKRASFKRK (SEQ ID NO:118) (not fully specified)
T13 chain: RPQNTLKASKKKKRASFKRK

[14] = molecular target: T14, CLK2 peptide RRRRSRTFSRS (SEQ ID NO:178) (not fully specified)
T14 chain: RRRRSRTFSRS

[15] = molecular target: T15, M1 muscarinic receptor peptide RWDKRRWRKIPKRPGSVHRT (SEQ ID NO:155) (not fully specified)
T15 chain: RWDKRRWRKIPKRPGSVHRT

[16] = molecular target: T16, fit1 peptide VQMTWSYPDEKNKRASVRRR (SEQ ID NO:158) (not fully specified)
T16 chain: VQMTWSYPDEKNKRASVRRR

[17] = molecular target: T17, ubiquitin specific protease 8 peptide RARRDSLKKIEIW (SEQ ID NO:136) (not fully specified)
T17 chain: RARRDSLKKIEIW

[18] = molecular target: T18, … peptide KKPFKLSGLSFKRNRKE (SEQ ID NO:88) (not fully specified)
T18 chain: KKPFKLSGLSFKRNRKE

[19] = molecular target: T19, PRKCM peptide VHYTSKDTLRKRHYWR (SEQ ID NO:91) (not fully specified)
T19 chain: VHYTSKDTLRKRHYWR

[20] = molecular target: T20, splicing factor, arginine/serine-rich 4 peptide RSRSRSRSKSKDKRKSRKRS (SEQ ID NO:134) (not fully specified)
T20 chain: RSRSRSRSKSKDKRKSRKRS

[21] = molecular target: T21, NR4A3 peptide KEVVRTDSLKGRRGR (SEQ ID NO:109) (not fully specified)
T21 chain: KEVVRTDSLKGRRGR

[22] = molecular target: T22, PLEK peptide KFARKSTRRSIRLPE (SEQ ID NO:78) (not fully specified)
T22 chain: KFARKSTRRSIRLPE

[23] = molecular target: T23, PARIS1 peptide RELEQLKAEYLERRASRRRA (SEQ ID NO:148) (not fully specified)
T23 chain: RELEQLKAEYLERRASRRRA

[24] = molecular target: T24, GABRB2 peptide QKKSRLRRRASQLKI (SEQ ID NO:84) (not fully specified)
T24 chain: QKKSRLRRRASQLKI

[25] = molecular target: T25, PPP1R14A peptide QKRHARVTVKYDRRE (SEQ ID NO:107) (not fully specified)
T25 chain: QKRHARVTVKYDRRE

[26] = molecular target: T26, GABA A receptor beta 2 peptide ERHVAQKKSRLRRRASQLKI (SEQ ID NO:142) (not fully specified)
T26 chain: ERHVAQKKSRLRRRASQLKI

[27] = molecular target: T27, PLD1 peptide KYKAFIRIPIPTRRHTFRRQ (SEQ ID NO:161) (not fully specified)
T27 chain: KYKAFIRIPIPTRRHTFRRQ

[28] = molecular target: T28, gap-43 peptide SFRGHITRKKLK (SEQ ID NO:207) (not fully specified)
T28 chain: SFRGHITRKKLK

[29] = molecular target: T29, DGKZ peptide KKKKRASFKRKSSKKG (SEQ ID NO:77) (not fully specified)
T29 chain: KKKKRASFKRKSSKKG

[30] = molecular target: T30, PSCDBP peptide LSSMFGTLPRKSRKGSVRKQ (SEQ ID NO:144) (not fully specified)
T30 chain: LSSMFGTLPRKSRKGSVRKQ

[31] = molecular target: T31, NF1 peptide AGSFKRNSIKKIV (SEQ ID NO:102) (not fully specified)
T31 chain: AGSFKRNSIKKIV

[32] = molecular target: T32, LRMP peptide RFSRRSSSWRIL (SEQ ID NO:204) (not fully specified)
T32 chain: RFSRRSSSWRIL

B1: PKC-theta (protein)
chain: MSPFLRIGLSNFDCGSCQSCQGEAVNPYCAVLVKEYVESENGQMYIQKKPTMYPPWDSTFDAHINKGRVMQIIVKGKNVDLISETTVELYSLAERCRKNNGKTEIWLELKPQGRMLMNARYFLEMSDTKDMNEFETEGFFALHQRRGAIKQAKVHHVKCHEFTATFFPQPTFCSVCHEFVWGLNKQGYQCRQCNAAIHKKCIDKVIAKCTGSAINSRETMFHKERFKIDMPHRFKVYNYKSPTFCEHCGTLLWGLARQGLKCDACGMNVHHRCQTKVANLCGINQKLMAEALAMIESTQQARCLRDTEQIFREGPVEIGLPCSIKNEARPPCLPTPGKREPQGISWESPLDEVDKMCHLPEPELNKERPSLQIKLKIEDFILHKMLGKGSFGKVFLAEFKKTNQFFAIKALKKDVVLMDDDVECTMVEKRVLSLAWEHPFLTHMFCTFQTKENLFFVMEYLNGGDLMYHIQSCHKFDLSRATFYAAEIILGLQFLHSKGIVYRDLKLDNILLDKDGHIKIADFGMCKENMLGDAKTNTFCGTPDYIAPEILLGQKYNHSVDWWSFGVLLYEMLIGQSPFHGQDEEELFHSIRMDNPFYPRWLEKEAKDLLVKLFVREPEKRLGVRGDIRQHPLFREINWEELERKEIDPPFRPKVKSPFDCSNFDKEFLNEKPRLSFADRALINSMDQNMFRNFSFMNPGMERLIS
in vitro phosphorylation (% of best substrate) [1]: 60 | in vitro phosphorylation (% of best substrate) [2]: 31 | Peptide phosphorylation by PKC-theta [3]: 99 | in vitro phosphorylation (% of best substrate) [3]: 100 | in vitro phosphorylation, 1 uM peptide (% of best substrate) [4]: 33 | in vitro phosphorylation, 10 uM peptide (% of best substrate) [4]: 34 | in vitro phosphorylation (% of best substrate) [5]: 24 | in vitro phosphorylation (% of best substrate) [6]: 46 | in vitro phosphorylation, 1 uM peptide (% of best substrate) [7]: 14 | in vitro phosphorylation, 10 uM peptide (% of best substrate) [7]: 13 | in vitro phosphorylation, 1 uM peptide (% of best substrate) [8]: 89 | in vitro phosphorylation, 10 uM peptide (% of best substrate) [8]: 77 | in vitro phosphorylation (% of best substrate) [9]: 21 | in vitro phosphorylation (% of best substrate) [10]: 18 | in vitro phosphorylation, 1 uM peptide (% of best substrate) [11]: 46 | in vitro phosphorylation, 10 uM peptide (% of best substrate) [11]: 45 | in vitro phosphorylation, 1 uM peptide (% of best substrate) [12]: 24 | in vitro phosphorylation, 10 uM peptide (% of best substrate) [12]: 20 | in vitro phosphorylation, 1 uM peptide (% of best substrate) [13]: 67 | in vitro phosphorylation, 10 uM peptide (% of best substrate) [13]: 52 | in vitro phosphorylation (% of best substrate) [14]: 65 | in vitro phosphorylation, 1 uM peptide (% of best substrate) [15]: 23 | in vitro phosphorylation, 10 uM peptide (% of best substrate) [15]: 26 | in vitro phosphorylation, 1 uM peptide (% of best substrate) [16]: 19 | in vitro phosphorylation, 10 uM peptide (% of best substrate) [16]: 23 | in vitro phosphorylation, 1 uM peptide (% of best substrate) [17]: 42 | in vitro phosphorylation, 10 uM peptide (% of best substrate) [17]: 28 | in vitro phosphorylation (% of best substrate) [18]: 38 | in vitro phosphorylation (% of best substrate) [19]: 10 | in vitro phosphorylation, 1 uM peptide (% of best substrate) [20]: 36 | in vitro phosphorylation, 10 uM peptide (% of best substrate) [20]: 16 | in vitro phosphorylation (% of best substrate) [21]: 9 | in vitro phosphorylation (% of best substrate) [22]: 47 | in vitro phosphorylation, 1 uM peptide (% of best substrate) [23]: 34 | in vitro phosphorylation, 10 uM peptide (% of best substrate) [23]: 34 | in vitro phosphorylation (% of best substrate) [24]: 87 | in vitro phosphorylation (% of best substrate) [25]: 40 | in vitro phosphorylation, 1 uM peptide (% of best substrate) [26]: 28 | in vitro phosphorylation, 10 uM peptide (% of best substrate) [26]: 37 | in vitro phosphorylation, 1 uM peptide (% of best substrate) [27]: 19 | in vitro phosphorylation, 10 uM peptide (% of best substrate) [27]: 23 | in vitro phosphorylation (% of best substrate) [28]: 18 | in vitro phosphorylation (% of best substrate) [29]: 74 | in vitro phosphorylation, 1 uM peptide (% of best substrate) [30]: 35 | in vitro phosphorylation, 10 uM peptide (% of best substrate) [30]: 22 | in vitro phosphorylation (% of best substrate) [31]: 28 | in vitro phosphorylation (% of best substrate) [32]: 22
